Test results from patent US20150203575A1 (Genentech, published 2015).

How the values were obtained:
PSS8 expressed on cells [1] = molecular target: T1, PSS8 expressed on cells (human, UniProt Q16651 30-343); assay: flow cytometry, transfected 293T cells, 50 µg/ml
T1 construct: Clone of the Origene human cDNA library; also called Protease serine 8; prostasin

[2] = molecular target: T2, IL-2Ra expressed on cells (human, UniProt P01589 22-272); assay: flow cytometry, transfected 293T cells, 50 µg/ml
T2 construct: Clone of the Origene human cDNA library; also called Interleukin 2 receptor alpha
T2 sequence: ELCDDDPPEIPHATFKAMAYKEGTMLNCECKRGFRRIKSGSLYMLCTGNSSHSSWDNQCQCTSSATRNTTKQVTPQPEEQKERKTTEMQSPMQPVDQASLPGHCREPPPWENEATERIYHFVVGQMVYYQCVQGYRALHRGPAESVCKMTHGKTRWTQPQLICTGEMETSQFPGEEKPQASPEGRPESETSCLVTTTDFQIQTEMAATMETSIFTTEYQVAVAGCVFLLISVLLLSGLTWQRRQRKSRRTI

BR3 expressed on cells [3] = molecular target: T3, BR3 expressed on cells (human, UniProt Q96RJ3 1-184); assay: flow cytometry, transfected 293T cells, 50 µg/ml
T3 construct: Clone of the Origene human cDNA library
T3 sequence: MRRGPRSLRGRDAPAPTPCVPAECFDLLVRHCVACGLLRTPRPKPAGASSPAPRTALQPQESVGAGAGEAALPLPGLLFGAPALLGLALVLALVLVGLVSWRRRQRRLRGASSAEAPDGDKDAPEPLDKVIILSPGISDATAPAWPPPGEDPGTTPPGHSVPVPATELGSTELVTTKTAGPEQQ

PSS8 expressed on cells [4] = molecular target: T1, PSS8 expressed on cells; assay: flow cytometry, transfected 293T cells, 2 µg/ml
[5] = molecular target: T2, IL-2Ra expressed on cells; assay: flow cytometry, transfected 293T cells, 2 µg/ml
BR3 expressed on cells [6] = molecular target: T3, BR3 expressed on cells; assay: flow cytometry, transfected 293T cells, 2 µg/ml
[7] = molecular target: T4, human COLEC12 expressed on cells (human, UniProt Q5KU26 1-742); assay: flow cytometry, transfected 293T cells, 50 µg/ml
T4 construct: also called hCOLEC12; C-terminal his tagged hCOLEC12

[8] = molecular target: T5, human NPDC1 expressed on cells (human, UniProt Q9NQX5 35-325); assay: flow cytometry, transfected 293T cells, 2 µg/ml; 293T-Neo: 0
T5 construct: also called hNPDC1; hNPCD1
T5 sequence: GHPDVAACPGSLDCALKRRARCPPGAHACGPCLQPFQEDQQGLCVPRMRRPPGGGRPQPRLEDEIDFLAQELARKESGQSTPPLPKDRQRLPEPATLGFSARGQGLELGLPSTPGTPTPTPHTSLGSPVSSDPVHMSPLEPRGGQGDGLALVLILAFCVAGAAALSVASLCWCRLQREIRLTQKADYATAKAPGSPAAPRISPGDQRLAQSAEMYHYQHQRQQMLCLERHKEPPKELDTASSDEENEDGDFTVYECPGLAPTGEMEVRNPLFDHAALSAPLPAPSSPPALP

[9] = molecular target: T4, human COLEC12 expressed on cells; assay: as above
[10] = molecular target: T6, LRRTM4 expressed on cells (human, UniProt Q86VH4 31-590); assay: flow cytometry, transfected 293T cells
T6 construct: Clone of the Origene human cDNA library; also called Leucine rich repeat transmembrane neuronal 4
T6 sequence (Q86VH4 31-590 limits assumed): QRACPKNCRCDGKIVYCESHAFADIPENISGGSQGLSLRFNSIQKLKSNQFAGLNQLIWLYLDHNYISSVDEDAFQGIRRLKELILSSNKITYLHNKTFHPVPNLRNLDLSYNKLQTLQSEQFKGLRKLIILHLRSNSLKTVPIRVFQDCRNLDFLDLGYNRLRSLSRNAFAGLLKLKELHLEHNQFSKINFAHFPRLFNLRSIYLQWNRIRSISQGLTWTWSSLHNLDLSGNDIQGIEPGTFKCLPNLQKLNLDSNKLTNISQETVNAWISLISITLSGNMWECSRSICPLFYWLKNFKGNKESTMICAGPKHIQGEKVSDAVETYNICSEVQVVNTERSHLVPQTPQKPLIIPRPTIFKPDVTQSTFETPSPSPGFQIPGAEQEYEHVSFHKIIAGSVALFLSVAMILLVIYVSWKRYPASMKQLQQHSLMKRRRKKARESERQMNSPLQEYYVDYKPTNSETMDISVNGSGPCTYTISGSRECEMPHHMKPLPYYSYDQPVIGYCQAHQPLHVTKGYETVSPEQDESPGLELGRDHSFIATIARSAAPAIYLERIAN

T4 sequence (Q5KU26 whole entry S522P/G606S): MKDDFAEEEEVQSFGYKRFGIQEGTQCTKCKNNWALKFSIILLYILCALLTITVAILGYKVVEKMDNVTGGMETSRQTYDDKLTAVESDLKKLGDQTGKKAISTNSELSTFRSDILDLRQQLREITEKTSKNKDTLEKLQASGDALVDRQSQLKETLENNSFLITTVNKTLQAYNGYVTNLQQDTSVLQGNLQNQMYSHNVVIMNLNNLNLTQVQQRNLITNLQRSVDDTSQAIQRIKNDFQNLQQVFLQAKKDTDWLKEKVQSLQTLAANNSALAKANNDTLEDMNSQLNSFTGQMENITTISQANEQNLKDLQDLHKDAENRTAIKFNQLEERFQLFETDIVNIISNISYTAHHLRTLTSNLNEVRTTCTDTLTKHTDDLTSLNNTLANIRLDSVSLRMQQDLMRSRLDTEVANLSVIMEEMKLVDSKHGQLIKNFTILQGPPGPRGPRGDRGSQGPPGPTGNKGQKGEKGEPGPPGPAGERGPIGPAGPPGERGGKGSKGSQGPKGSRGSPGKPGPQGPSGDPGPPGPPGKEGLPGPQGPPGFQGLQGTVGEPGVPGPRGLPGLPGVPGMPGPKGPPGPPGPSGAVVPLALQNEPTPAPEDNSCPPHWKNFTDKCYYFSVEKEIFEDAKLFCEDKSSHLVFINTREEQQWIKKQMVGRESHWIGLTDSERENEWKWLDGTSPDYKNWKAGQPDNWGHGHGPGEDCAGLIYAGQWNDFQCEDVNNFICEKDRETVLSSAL
T1 sequence (Q16651 30-343 limits assumed): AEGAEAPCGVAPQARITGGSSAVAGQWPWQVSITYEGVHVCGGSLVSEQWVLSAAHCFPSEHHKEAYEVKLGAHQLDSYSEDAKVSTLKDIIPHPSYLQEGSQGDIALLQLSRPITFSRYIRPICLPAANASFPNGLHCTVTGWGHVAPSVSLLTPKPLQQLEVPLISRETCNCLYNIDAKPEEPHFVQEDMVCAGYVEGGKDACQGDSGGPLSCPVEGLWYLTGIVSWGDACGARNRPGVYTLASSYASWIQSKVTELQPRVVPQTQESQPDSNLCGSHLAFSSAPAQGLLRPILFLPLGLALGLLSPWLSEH

Binder | % cells in lower right quadrant (PSS8 expressed on cells [1]) | % cells in lower right quadrant [2] | % cells in lower right quadrant (BR3 expressed on cells [3]) | % cells in lower right quadrant (PSS8 expressed on cells [4]) | % cells in lower right quadrant [5] | % cells in lower right quadrant (BR3 expressed on cells [6]) | % cells in lower right quadrant [7] | % cells in lower right quadrant [8] | % cells in lower right quadrant [9] | binding result [10]
mPILRα-Fc (Fc fusion, also called mouse PILRα-Fc; WT mPILRα-Fc; not shown: Fc of mouse IgG2a (PILRα-mIgG2a, called PILRα-Fc)) not shown | 30.6% | 55.7% | 53.3% | 0.024% | 14.1% | 34.1% | 10.1% | 29.6% | 0.082% | –
mPILRαR133A-Fc (Fc fusion, Arg mutant of mPILRα-Fc; also called mPILRα133A-Fc; variant mPILRα (R133A); not shown: Fc of mouse IgG2a (PILRα-mIgG2a, called PILRα-Fc)) not shown | – | – | – | – | – | – | – | – | – | no binding (tested: 50 µg/ml)
